Patent publication US20090068744A1, “VITREOUS CELL LINE” (SENJU PHARMACEUTICAL CO., LTD., priority 2006, published 2009)

How the values were obtained:
[1] = tested on: VEGF mRNA expression by a vitreous cell line; assay: VEGF mRNA expression by RT-PCR after cytokine stimulation of the vitreous cell line; format: cell-based, swine; conditions: for VEGF mRNA expression level: cytokine 10 ng/ml, up to 48 hours, FIG. 7, FIG. 9; for VEGF mRNA level as compared to the mRNA level of non-stimulation control: RT-PCR
Protocol: (§1) Changes of VEGF expression due to cytokine stimulation in the vitreous cell line established in Example 1 were examined. The expression of VEGF at an mRNA level was examined by RT-PCR, and the expression at a protein level was examined by ELISA.
To be specific, when the vitreous cell line reached 50-60% confluent, the medium for the cells was exchanged with DMEM containing 1% bovine serum. […] Total RNA was extracted from the stimulated cells, cDNA was synthesized, and PCR was conducted using VEGF primers. The medium of the stimulated cells was used for ELISA. Since an appropriate antibody to swine VEGF is not available, VEGF protein concentration was measured by ELISA using an antibody to human VEGF, and the result was calculated as a reference value led from a human VEGF standard product. PCR was conducted using TOYOBO KOD plus kit and Gene PCR System 9700 (Applied Biosystem). The conditions of PCR were as follows:
(§2) 95° C. 120 seconds; (95° C. 15 seconds, 62° C. 30 seconds, 68° C. 30 seconds)×30 cycles; 68° C. 90 seconds. ELISA was entrusted to Mitsubishi BCL.

[2] = tested on: VEGF protein expression by a vitreous cell line; assay: VEGF protein in culture supernatant by ELISA after cytokine stimulation; format: cell-based, swine; conditions: cytokine 10 ng/ml; ELISA with antibody to human VEGF, relative values; FIG. 8
Protocol: as §1
To be specific, when the vitreous cell line reached 50-60% confluent, the medium for the cells was exchanged with DMEM containing 1% bovine serum. After culturing for 24 hours, the cells were stimulated with cytokine (IL-1α, IL-1β, TNFα, PDGF-AA, PDGF-BB or TGFβ) (10 ng/ml) for 48 hours (FIG. 6). Total RNA was extracted from the stimulated cells, cDNA was synthesized, and PCR was conducted using VEGF primers. The medium of the stimulated cells was used for ELISA. Since an appropriate antibody to swine VEGF is not available, VEGF protein concentration was measured by ELISA using an antibody to human VEGF, and the result was calculated as a reference value led from a human VEGF standard product. PCR was conducted using TOYOBO KOD plus kit and Gene PCR System 9700 (Applied Biosystem). The conditions of PCR were as follows:
as §2

B1: IL-1α: cytokine used to stimulate the vitreous cell line (10 ng/ml) (protein, UniProt P01583 113-271, looked up)
Interleukin-1 alpha: SAPFSFLSNVKYNFMRIIKYEFILNDALNQSIIRANDQYLTAAALHNLDEAVKFDMGAYKSSKDDAKITVILRISKTQLYVTAQDEDQPVLLKEMPEIPKTITGSETNLLFFWETHGTKNYFTSVAHPNLFIATKQDYWVCLAGGPPSITDFQILENQA
For B1, the “VEGF mRNA expression level” value [1] was “increased with time”, the “VEGF mRNA level as compared to the mRNA level of non-stimulation control” value ([1]; in 12 hours) was at least 2 fold and the “VEGF mRNA level as compared to the mRNA level of non-stimulation control” value ([1]; in 48 hours) was at least 2.5 fold. For the same molecule, the “concentration of VEGF protein in the culture supernatant” value [2] was “increased with time”.

B2: PDGF-BB: cytokine used to stimulate the vitreous cell line (10 ng/ml) (protein, UniProt P01127 82-190, looked up)
Platelet-derived growth …: SLGSLTIAEPAMIAECKTRTEVFEISRRLIDRTNANFLVWPPCVEVQRCSGCCNNRNVQCRPTQVQLRPVQVRKIEIVRKKPIFKKATVTLEDHLACKCETVAAARPVT
With B2 the “VEGF mRNA expression level” value [1] was “a significant change in the VEGF mRNA expression level was not observed”.
